From patent US20140072613A1, “Compositions and Methods for Treating Cutaneous Scarring” (priority 2012, published 2014) come the findings set out here.

What all share (experiment): biochemical
Assay type in all cases: biochemical

Experiment [1] has as its target 266 human kinases (Homo sapiens, UniProt Q02763). To be noted: Tie2(h); 100 μM. The gist of the method:
(§1)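 Radiometric filter-binding format: a positively charged substrate takes up radiolabelled phosphate from ATP unless the kinase is inhibited, then is captured on a negatively charged filter membrane. Counts from scintillation are expressed relative to a 100% activity control.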

Experiment [2] has as its target 266 human kinases (Homo sapiens, UniProt P42345). The conditions noted are these: 100 μM. The procedure, abridged: as §1
The target of experiment [3] is T1, 266 human kinases (Homo sapiens, UniProt Q15139).
T1 sequence (Q15139 1-912): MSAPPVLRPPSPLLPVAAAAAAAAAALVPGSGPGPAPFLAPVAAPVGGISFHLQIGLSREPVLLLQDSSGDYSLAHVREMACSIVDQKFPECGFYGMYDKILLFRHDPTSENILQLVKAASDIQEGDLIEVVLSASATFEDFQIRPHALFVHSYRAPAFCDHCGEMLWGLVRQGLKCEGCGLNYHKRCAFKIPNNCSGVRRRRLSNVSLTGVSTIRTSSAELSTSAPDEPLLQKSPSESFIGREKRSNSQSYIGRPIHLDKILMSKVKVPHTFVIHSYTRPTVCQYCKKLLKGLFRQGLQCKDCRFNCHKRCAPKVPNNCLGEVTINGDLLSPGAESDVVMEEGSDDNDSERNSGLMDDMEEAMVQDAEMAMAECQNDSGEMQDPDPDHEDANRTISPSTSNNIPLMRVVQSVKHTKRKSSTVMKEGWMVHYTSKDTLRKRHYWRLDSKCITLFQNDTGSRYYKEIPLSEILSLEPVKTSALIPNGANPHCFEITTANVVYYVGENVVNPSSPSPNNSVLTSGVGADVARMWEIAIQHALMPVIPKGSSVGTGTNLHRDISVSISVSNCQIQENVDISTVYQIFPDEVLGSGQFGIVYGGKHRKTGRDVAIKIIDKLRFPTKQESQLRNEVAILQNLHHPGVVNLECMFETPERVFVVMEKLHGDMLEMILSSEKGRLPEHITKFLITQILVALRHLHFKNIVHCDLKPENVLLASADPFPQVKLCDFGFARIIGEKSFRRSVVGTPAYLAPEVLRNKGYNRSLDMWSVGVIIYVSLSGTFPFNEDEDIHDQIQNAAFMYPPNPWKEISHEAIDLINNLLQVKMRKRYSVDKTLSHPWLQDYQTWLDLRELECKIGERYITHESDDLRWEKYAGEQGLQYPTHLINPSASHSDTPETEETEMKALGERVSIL
To be noted: PKCμ(h); 100 μM. The procedure, abridged: as §1

For experiment [4], the target named is T2, 266 human kinases (Homo sapiens, UniProt Q15831).
T2 sequence (Q15831 1-433): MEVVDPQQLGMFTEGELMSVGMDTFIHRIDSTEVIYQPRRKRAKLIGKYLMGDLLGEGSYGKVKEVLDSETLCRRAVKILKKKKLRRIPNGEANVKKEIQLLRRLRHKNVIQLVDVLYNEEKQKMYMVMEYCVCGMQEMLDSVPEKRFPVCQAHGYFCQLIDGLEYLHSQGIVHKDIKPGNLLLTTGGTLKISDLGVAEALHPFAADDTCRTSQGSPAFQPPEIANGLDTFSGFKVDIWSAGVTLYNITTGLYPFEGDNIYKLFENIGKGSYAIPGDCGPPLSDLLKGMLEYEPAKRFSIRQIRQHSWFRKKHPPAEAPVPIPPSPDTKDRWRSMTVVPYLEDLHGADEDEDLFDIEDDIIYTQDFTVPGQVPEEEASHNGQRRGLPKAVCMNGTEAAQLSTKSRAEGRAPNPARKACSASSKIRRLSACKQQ
The conditions noted are these: LKB1(h); 100 μM. The gist of the method: as §1

Experiment [5] has as its target T3, 266 human kinases (Homo sapiens, UniProt Q8TF76).
T3 sequence (Q8TF76 1-798): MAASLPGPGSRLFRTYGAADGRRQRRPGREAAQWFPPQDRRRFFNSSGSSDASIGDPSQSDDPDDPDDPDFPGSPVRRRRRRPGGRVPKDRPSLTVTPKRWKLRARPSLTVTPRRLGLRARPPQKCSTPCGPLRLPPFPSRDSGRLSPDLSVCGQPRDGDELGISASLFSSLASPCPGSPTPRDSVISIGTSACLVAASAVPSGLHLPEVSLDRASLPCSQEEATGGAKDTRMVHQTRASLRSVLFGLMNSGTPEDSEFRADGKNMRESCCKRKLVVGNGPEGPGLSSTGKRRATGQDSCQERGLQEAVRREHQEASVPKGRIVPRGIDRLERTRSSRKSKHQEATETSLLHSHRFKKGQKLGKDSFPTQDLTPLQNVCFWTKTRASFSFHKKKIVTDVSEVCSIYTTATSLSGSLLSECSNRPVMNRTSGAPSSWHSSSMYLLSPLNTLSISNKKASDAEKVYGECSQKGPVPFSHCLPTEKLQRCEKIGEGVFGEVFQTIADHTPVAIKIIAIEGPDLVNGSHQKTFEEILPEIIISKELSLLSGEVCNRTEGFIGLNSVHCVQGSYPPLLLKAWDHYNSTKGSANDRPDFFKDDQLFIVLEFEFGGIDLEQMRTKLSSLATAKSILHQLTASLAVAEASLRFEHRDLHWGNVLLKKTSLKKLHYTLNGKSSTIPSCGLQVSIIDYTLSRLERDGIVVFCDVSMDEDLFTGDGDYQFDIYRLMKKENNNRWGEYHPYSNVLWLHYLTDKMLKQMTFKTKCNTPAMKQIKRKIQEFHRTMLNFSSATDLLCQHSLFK
To be noted: Haspin(h); 100 μM. The gist of the method:
as §1

Chain of 266 human kinases (Homo sapiens, UniProt Q02763) (Q02763 23-1124): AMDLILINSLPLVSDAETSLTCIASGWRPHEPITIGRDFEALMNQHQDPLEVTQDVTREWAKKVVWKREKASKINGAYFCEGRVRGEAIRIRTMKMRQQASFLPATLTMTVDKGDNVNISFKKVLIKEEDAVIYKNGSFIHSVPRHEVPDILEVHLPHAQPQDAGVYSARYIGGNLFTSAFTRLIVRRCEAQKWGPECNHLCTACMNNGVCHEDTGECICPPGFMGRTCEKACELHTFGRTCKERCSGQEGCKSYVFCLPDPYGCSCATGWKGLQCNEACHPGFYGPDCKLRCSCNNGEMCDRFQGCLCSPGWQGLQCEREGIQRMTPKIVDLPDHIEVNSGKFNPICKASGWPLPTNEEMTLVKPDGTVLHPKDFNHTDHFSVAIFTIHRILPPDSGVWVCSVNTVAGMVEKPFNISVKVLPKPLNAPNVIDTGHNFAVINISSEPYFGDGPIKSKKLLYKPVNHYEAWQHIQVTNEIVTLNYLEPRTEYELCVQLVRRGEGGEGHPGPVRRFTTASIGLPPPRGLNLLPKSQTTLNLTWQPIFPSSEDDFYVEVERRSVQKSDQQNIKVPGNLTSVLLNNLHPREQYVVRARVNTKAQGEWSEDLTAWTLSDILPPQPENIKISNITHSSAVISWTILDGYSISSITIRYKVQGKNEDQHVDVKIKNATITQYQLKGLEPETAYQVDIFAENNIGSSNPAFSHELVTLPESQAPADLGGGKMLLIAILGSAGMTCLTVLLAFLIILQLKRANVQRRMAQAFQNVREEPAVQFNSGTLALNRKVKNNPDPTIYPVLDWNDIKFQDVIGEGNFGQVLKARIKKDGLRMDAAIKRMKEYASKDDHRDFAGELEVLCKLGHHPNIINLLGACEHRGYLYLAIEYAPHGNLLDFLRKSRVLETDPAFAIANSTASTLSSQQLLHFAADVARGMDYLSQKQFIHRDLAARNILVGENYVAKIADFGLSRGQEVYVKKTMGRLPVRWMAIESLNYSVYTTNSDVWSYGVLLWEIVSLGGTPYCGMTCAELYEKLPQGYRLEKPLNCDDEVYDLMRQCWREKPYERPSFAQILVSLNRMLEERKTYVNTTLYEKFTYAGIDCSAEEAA

With “YARAAARQARAKALNRQLGVA (mammal) [MMI-0200]”, the “% activity” value came to 53% in experiment [1]; 110% in experiment [2] (mTOR(h)); 118% in experiment [2] (mTOR/FKBP12(h)); 73% in experiment [3]; 99% in experiment [4]; 71% in experiment [5].

Regarding “HRRIKAWLKKIKALARQLGVAA (mammal) [MMI-0500]”, the “% activity” value is recorded as 22% in experiment [1]; 135% in experiment [2] (mTOR(h)); 140% in experiment [2] (mTOR/FKBP12(h)); 10% in experiment [3]; 51% in experiment [4]; 25% in experiment [5].
